Data set [1] concerns the target T1, Sis0811 (SisRN0811), full length (Saccharolobus islandicus, UniProt F0NH89).
T1 sequence (F0NH89 1-322): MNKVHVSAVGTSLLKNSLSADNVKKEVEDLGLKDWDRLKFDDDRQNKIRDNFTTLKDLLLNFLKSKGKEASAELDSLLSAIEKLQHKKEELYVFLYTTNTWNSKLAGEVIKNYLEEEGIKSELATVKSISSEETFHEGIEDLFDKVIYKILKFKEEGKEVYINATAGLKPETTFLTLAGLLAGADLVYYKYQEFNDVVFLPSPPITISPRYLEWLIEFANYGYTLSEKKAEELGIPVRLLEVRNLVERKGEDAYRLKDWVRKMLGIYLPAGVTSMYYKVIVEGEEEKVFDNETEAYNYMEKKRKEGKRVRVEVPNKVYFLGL
Nature of the data set: isothermal titration calorimetry, single-site model. It counts as binding.

Another data set addresses T2, Sis0811Δ268 (Saccharolobus islandicus, UniProt F0NH89).
T2 sequence (F0NH89 1-268): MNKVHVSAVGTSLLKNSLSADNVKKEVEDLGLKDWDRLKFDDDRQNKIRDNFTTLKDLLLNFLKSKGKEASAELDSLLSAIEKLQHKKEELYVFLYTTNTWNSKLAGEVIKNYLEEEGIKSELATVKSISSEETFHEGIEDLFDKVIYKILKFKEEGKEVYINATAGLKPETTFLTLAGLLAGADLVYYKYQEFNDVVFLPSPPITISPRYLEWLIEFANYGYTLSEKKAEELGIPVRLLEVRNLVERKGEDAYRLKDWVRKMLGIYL
The description is as above. The class given is binding.

The data set “SEC-MALS” concerns the molecule itself. The experiment in a line: SEC-MALS. For orientation: Size exclusion chromatography separates by hydrodynamic size, large species first.
The data set “crystal structure” deals with the molecule itself. The experiment in a line: crystal structure.

Usually Kd stands for the concentration at which binding is half-saturated. A lower Kd goes with a tighter complex. Turning to `Nc1ncnc2c1ncn2[C@@H]1O[C@@H]2COP(=O)(O)O[C@H]3[C@@H](O)[C@H](n4cnc5c(N)ncnc54)O[C@@H]3COP(=O)(O)O[C@H]3[C@@H](O)[C@H](n4cnc5c(N)ncnc54)O[C@@H]3COP(=O)(O)O[C@H]3[C@@H](O)[C@H](n4cnc5c(N)ncnc54)O[C@@H]3COP(=O)(O)O[C@H]2[C@H]1O` [cA4], the dissociation constant (Kd) amounted to 9.1 nM in data set [1] and 5.9 nM at Sis0811Δ268.

B1: Sis0811 full length (standalone ring nuclease from Sulfolobus islandicus REY15A) (enzyme, UniProt F0NH89 1-322, looked up)
chain: MNKVHVSAVGTSLLKNSLSADNVKKEVEDLGLKDWDRLKFDDDRQNKIRDNFTTLKDLLLNFLKSKGKEASAELDSLLSAIEKLQHKKEELYVFLYTTNTWNSKLAGEVIKNYLEEEGIKSELATVKSISSEETFHEGIEDLFDKVIYKILKFKEEGKEVYINATAGLKPETTFLTLAGLLAGADLVYYKYQEFNDVVFLPSPPITISPRYLEWLIEFANYGYTLSEKKAEELGIPVRLLEVRNLVERKGEDAYRLKDWVRKMLGIYLPAGVTSMYYKVIVEGEEEKVFDNETEAYNYMEKKRKEGKRVRVEVPNKVYFLGL
In general, stoichiometry N refers to a count of units in the complex or per binding partner. As for B1, in “SEC-MALS”, the “stoichiometry N” value came out at 2.

B2: Sis0811_(Δ268) (truncated Sis0811 lacking the C-terminal 54 residues) (domain or fragment, Sulfolobus islandicus REY15A, UniProt F0NH89 1-268, looked up)
chain: MNKVHVSAVGTSLLKNSLSADNVKKEVEDLGLKDWDRLKFDDDRQNKIRDNFTTLKDLLLNFLKSKGKEASAELDSLLSAIEKLQHKKEELYVFLYTTNTWNSKLAGEVIKNYLEEEGIKSELATVKSISSEETFHEGIEDLFDKVIYKILKFKEEGKEVYINATAGLKPETTFLTLAGLLAGADLVYYKYQEFNDVVFLPSPPITISPRYLEWLIEFANYGYTLSEKKAEELGIPVRLLEVRNLVERKGEDAYRLKDWVRKMLGIYL
For B2, the “stoichiometry N” value in the data set “SEC-MALS” was 2.

B3: Sis0811_(Δ268)(S12A) (domain or fragment, Sulfolobus islandicus REY15A, UniProt F0NH89 1-268, looked up)
chain: MNKVHVSAVGTALLKNSLSADNVKKEVEDLGLKDWDRLKFDDDRQNKIRDNFTTLKDLLLNFLKSKGKEASAELDSLLSAIEKLQHKKEELYVFLYTTNTWNSKLAGEVIKNYLEEEGIKSELATVKSISSEETFHEGIEDLFDKVIYKILKFKEEGKEVYINATAGLKPETTFLTLAGLLAGADLVYYKYQEFNDVVFLPSPPITISPRYLEWLIEFANYGYTLSEKKAEELGIPVRLLEVRNLVERKGEDAYRLKDWVRKMLGIYL
B3: the binding result in “crystal structure” is on record as “binds”.

B4: Sis0811_(Δ268)(S12G/K169G) (domain or fragment, Sulfolobus islandicus REY15A, UniProt F0NH89 1-268, looked up)
chain: MNKVHVSAVGTGLLKNSLSADNVKKEVEDLGLKDWDRLKFDDDRQNKIRDNFTTLKDLLLNFLKSKGKEASAELDSLLSAIEKLQHKKEELYVFLYTTNTWNSKLAGEVIKNYLEEEGIKSELATVKSISSEETFHEGIEDLFDKVIYKILKFKEEGKEVYINATAGLGPETTFLTLAGLLAGADLVYYKYQEFNDVVFLPSPPITISPRYLEWLIEFANYGYTLSEKKAEELGIPVRLLEVRNLVERKGEDAYRLKDWVRKMLGIYL
In the case of B4, the binding result in “crystal structure” was “binds”.
